Measurements: the supplement of paper PMC9112550, “Optimization of the antimicrobial peptide Bac7 by deep mutational scanning” (BMC Biology, 2022)

Test system: Escherichia coli TOP10
Experiment: shrunken log2 fold change of peptide-encoding DNA abundance (4.5 h post-induction vs induction); higher = less antimicrobial activity (less host growth inhibition)
Settings: time post-induction: 4.5 h; library: site-saturation at positions 5, 18, 19, 20
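Note: peptides expressed intracellularly from a pBAD plasmid library in pooled LB shake-flask culture, induced with 0.3% L-arabinose, DNA abundance read by NGS, three biological replicates, DESeq2 with apeglm shrinkage.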

Sequence	shrunken log2 fold change
RRIRGRPPRLPRPRPRPKMHPRP	0.769
RRIRTRPPRLPRPRPRPWGFPRP	0.0102
RRIRLRPPRLPRPRPRPFFVPRP	-0.168
RRIRDRPPRLPRPRPRPVTIPRP	-0.0184
RRIRHRPPRLPRPRPRPQLDPRP	0.153
RRIRERPPRLPRPRPRPEAIPRP	-0.0664
RRIRNRPPRLPRPRPRPQYAPRP	-0.0234
RRIRKRPPRLPRPRPRPYNHPRP	-0.0988
RRIRVRPPRLPRPRPRPQTCPRP	-0.193
RRIRYRPPRLPRPRPRPSTFPRP	-0.282
RRIRHRPPRLPRPRPRPEDWPRP	0.83
RRIRSRPPRLPRPRPRPWRIPRP	-0.0443
RRIRGRPPRLPRPRPRPFWHPRP	0.297
RRIRSRPPRLPRPRPRPIDIPRP	-0.3
RRIRQRPPRLPRPRPRPVIGPRP	-0.0941
RRIRMRPPRLPRPRPRPRECPRP	0.0611
RRIRGRPPRLPRPRPRPKEFPRP	-0.0157
RRIRPRPPRLPRPRPRPYVIPRP	-0.401
RRIRARPPRLPRPRPRPVPQPRP	0.271
RRIRKRPPRLPRPRPRPHWPPRP	0.31
RRIRQRPPRLPRPRPRPRKDPRP	-0.16
RRIRRRPPRLPRPRPRPLAMPRP	-0.0111

Sequence	shrunken log2 fold change
RRIRERPPRLPRPRPRPSFWPRP	0.132
RRIRKRPPRLPRPRPRPGIMPRP	-0.206
RRIRMRPPRLPRPRPRPVGCPRP	0.972
RRIRIRPPRLPRPRPRPSTGPRP	-0.505
RRIRWRPPRLPRPRPRPWTKPRP	-0.0653
RRIRDRPPRLPRPRPRPCSWPRP	0.654
RRIRPRPPRLPRPRPRPRCYPRP	0.0458
RRIRLRPPRLPRPRPRPLYKPRP	-0.328
RRIRGRPPRLPRPRPRPAVNPRP	0.402
RRIRVRPPRLPRPRPRPWINPRP	-0.565
RRIRYRPPRLPRPRPRPTMRPRP	0.243
RRIRRRPPRLPRPRPRPGPRPRP	0.917
RRIRLRPPRLPRPRPRPAWVPRP	-0.0218
RRIRKRPPRLPRPRPRPNIPPRP	-0.237
RRIRKRPPRLPRPRPRPTTFPRP	0.18
RRIRPRPPRLPRPRPRPFKKPRP	-0.161
RRIRSRPPRLPRPRPRPNLRPRP	0.0182
RRIRCRPPRLPRPRPRPPPMPRP	1.08
RRIRWRPPRLPRPRPRPLPDPRP	0.672
RRIRRRPPRLPRPRPRPTVVPRP	0.0199
RRIRHRPPRLPRPRPRPRCAPRP	0.189
RRIRPRPPRLPRPRPRPEYWPRP	-0.035

Sequence	shrunken log2 fold change
RRIRQRPPRLPRPRPRPCPHPRP	-0.141
RRIRDRPPRLPRPRPRPLGIPRP	0.143
RRIRRRPPRLPRPRPRPYIFPRP	-0.639
RRIRGRPPRLPRPRPRPRLFPRP	1.11
RRIRVRPPRLPRPRPRPVKEPRP	0.629
RRIRNRPPRLPRPRPRPVLHPRP	-0.00264
RRIRLRPPRLPRPRPRPACSPRP	0.0854
RRIRSRPPRLPRPRPRPWMSPRP	0.132
RRIRERPPRLPRPRPRPEHQPRP	0.0588
RRIRTRPPRLPRPRPRPFIEPRP	-0.553
RRIRSRPPRLPRPRPRPMCDPRP	-0.147
RRIRYRPPRLPRPRPRPTKVPRP	-0.235
RRIRHRPPRLPRPRPRPKKHPRP	-0.324
RRIRTRPPRLPRPRPRPHENPRP	0.00752
RRIRFRPPRLPRPRPRPVHTPRP	-0.0075
RRIRFRPPRLPRPRPRPGRSPRP	0.183
RRIRTRPPRLPRPRPRPRYQPRP	-0.0799
RRIRCRPPRLPRPRPRPQYEPRP	-0.119
RRIRSRPPRLPRPRPRPFSDPRP	-0.126
RRIRHRPPRLPRPRPRPVFRPRP	0.0291
RRIRVRPPRLPRPRPRPPPAPRP	1.07
RRIRLRPPRLPRPRPRPKQIPRP	0.0389

Sequence	shrunken log2 fold change
RRIRGRPPRLPRPRPRPHEDPRP	3.55
RRIRPRPPRLPRPRPRPGYMPRP	-0.126
RRIRIRPPRLPRPRPRPGLVPRP	0.0385
RRIRGRPPRLPRPRPRPYCLPRP	-0.305
RRIRARPPRLPRPRPRPRSAPRP	0.681
RRIRFRPPRLPRPRPRPMVMPRP	-0.696
RRIRTRPPRLPRPRPRPDPPPRP	0.517
RRIRHRPPRLPRPRPRPWRIPRP	-0.0502
RRIRKRPPRLPRPRPRPKVMPRP	0.0802
RRIRSRPPRLPRPRPRPSTPPRP	-0.0374
RRIRKRPPRLPRPRPRPDSVPRP	0.0996
RRIRSRPPRLPRPRPRPAVWPRP	0.765
RRIRARPPRLPRPRPRPPAWPRP	0.621
RRIRERPPRLPRPRPRPYCPPRP	-1.59
RRIRWRPPRLPRPRPRPGNIPRP	-0.472
RRIRGRPPRLPRPRPRPGVYPRP	0.0589
RRIRDRPPRLPRPRPRPVVTPRP	0.689
RRIRWRPPRLPRPRPRPKTKPRP	0.101
RRIRERPPRLPRPRPRPQVLPRP	-0.0121
RRIRSRPPRLPRPRPRPCADPRP	0.0939
RRIRIRPPRLPRPRPRPTLRPRP	0.0906
RRIRWRPPRLPRPRPRPYFPPRP	-0.282

Sequence	shrunken log2 fold change
RRIRMRPPRLPRPRPRPWHRPRP	-0.0718
RRIRRRPPRLPRPRPRPFQMPRP	-0.138
RRIRLRPPRLPRPRPRPSNYPRP	-0.53
RRIRKRPPRLPRPRPRPHHWPRP	0.706
RRIRHRPPRLPRPRPRPEYSPRP	-0.0276
RRIRLRPPRLPRPRPRPNQSPRP	-0.0737
RRIRMRPPRLPRPRPRPQTDPRP	0.19
RRIRTRPPRLPRPRPRPNGAPRP	-0.0908
RRIRVRPPRLPRPRPRPYRTPRP	-0.19
RRIRGRPPRLPRPRPRPDSQPRP	0.223
RRIRRRPPRLPRPRPRPRIEPRP	0.261
RRIRPRPPRLPRPRPRPFSDPRP	-0.0761
RRIRQRPPRLPRPRPRPHCFPRP	-0.111
RRIRCRPPRLPRPRPRPHYRPRP	0.127
RRIRERPPRLPRPRPRPAFTPRP	-0.0832
RRIRTRPPRLPRPRPRPFATPRP	0.101
RRIRMRPPRLPRPRPRPHTPPRP	0.137
RRIRKRPPRLPRPRPRPNPDPRP	0.383
RRIRDRPPRLPRPRPRPEINPRP	0.648
RRIRERPPRLPRPRPRPTRLPRP	0.576
RRIRLRPPRLPRPRPRPYRWPRP	-0.0173
